Laboratory results taken from paper PMC5007448, “Molecular logic of the Zur-regulated zinc deprivation response in Bacillus subtilis”.

B1: PrpmEB (dsDNA)
DNA 1: GTAAGGTTATAAAATAAAACGTAATTATTACGATTTATTGAAAGG
DNA 2: CCTTTCAATAAATCGTAATAATTACGTTTTATTTTATAACCTTAC
B2: PrpsNB (dsDNA)
DNA 1: GAATGATACATTTTAAATCGTAACAATTTCGATTTAAAGGGAGGC
DNA 2: GCCTCCCTTTAAATCGAAATTGTTACGATTTAAAATGTATCATTC
B3: PzinT (dsDNA)
DNA 1: ATGTATGTATAATAAATCGTAATGTTTTCGATTTAATAAAAAAGG
DNA 2: CCTTTTTTATTAAATCGAAAACATTACGATTTATTATACATACAT
B4: PznuA (dsDNA)
DNA 1: ATTTATTCTTGCAAAACGTAATGACTTCGGTTTATTATGATATAG
DNA 2: CTATATCATAATAAACCGAAGTCATTACGTTTTGCAAGAATAAAT
B5: PyciC (dsDNA)
DNA 1: ACCATACAATTTAAGTCGTAACAATTACGTTTTATGATAAATGGC
DNA 2: GCCATTTATCATAAAACGTAATTGTTACGACTTAAATTGTATGGT
B6: PfolEB (dsDNA)
DNA 1: ACCGATCAAAATAAATAGTAATTATTACGATTTGTTAGTGAGAGG
DNA 2: CCTCTCACTAACAAATCGTAATAATTACTATTTATTTTGATCGGT

These binders were tested against Zur WT (BsZur) (Bacillus subtilis, UniProt P54479 1-145) (assay: EMSA; 0.1 uM ZnSO4; 20 mM Tris-HCl pH 6.4, 50 mM KCl, 1 mM DTT, 0.1 mg/ml BSA, 5% glycerol, 0.1 ug poly(dI-dC) in 20 ul, 0.1 uM ZnSO4; room temperature 20 min; gel at 4 C in TA pH). Conditions: protein: recombinant; tags: none stated; chain copies: 2; label: 5'-32P; blunt.

Binder | Kd [nM]
B1 | 14.3 ± 2.6
B2 | 14.3 ± 2.5
B3 | 15.6 ± 3.5
B4 | 12.5 ± 4
B5 | 25.4 ± 1.1
B6 | 21.9 ± 3.9

The binders below were run against Zur C84S (Bacillus subtilis, UniProt P54479 1-145, C84S) in the same assay as above. Conditions: protein: recombinant; tags: none stated; chain copies: 2; label: 5'-32P; blunt.

Binder | Kd [nM]
B1 | 77.9 ± 4
B2 | 16.5 ± 2.5
B3 | 75.5 ± 5.3
B4 | 73 ± 2
B5 | 80.6 ± 3.2
B6 | 28.6 ± 2.5

What follows are binders tested against Zur H124A (Bacillus subtilis, UniProt P54479 1-145, H124A) in the same assay as above. Conditions: protein: recombinant; tags: none stated; chain copies: 2; label: 5'-32P; blunt.

Binder | Kd [nM]
B1 | 101 ± 2.3
B2 | 99 ± 1.6
B3 | 96 ± 1.3
B4 | 110 ± 3
B5 | 129 ± 3.8
B6 | 100 ± 4
